Experimental data published in patent publication US20250382353A1 (LA JOLLA INSTITUTE FOR IMMUNOLOGY, published 2025).

B1: LJI_491-27 (1C3) (antibody, V domains shown)
VH: QVQLLESGGGLVQPGRSLRLSCAASGFTFDDYAMHWVRQPPGKGLEWVSGSSWNSGSVVYADSVKGRFTISRDSAKNSLHLQMNSLRVEDTALYYCAKAVDPTRGSYSPDYGFDIWGQGTMVTVS
VL: not shown
B2: LJI_491-39 (2E6) (antibody, V domains shown)
VH: EVQLVQSGGGLVQPGGSLKLSCAASGFTFSGSAMHWVRQASGKGLEWVGHIRSKANSYATAYAASKGRFTISRDDSKNTAYLQMNSLKTEDTAVYYCTREDIVGVPVAKDWFDPWGQGTLVTVS
VL: DIQMTQSPSSLFASVGDRVTITCRASQSISSYLNWYQQKPGKAPKLLIYAASSLQSGVPSRFSGSGFGTDFTLTISSLQPEDFATYYCQQSYSTLSITFGQGTRLEIKR

Experiments:
Experiment in all cases: cell-based or functional assay
[1] = biological target: rVSV-G614 spike (SARS-CoV-2, UniProt P0DTC2 14-1252)
[2] = biological target: rVSV-Delta spike (SARS-CoV-2 Delta, UniProt P0DTC2 14-1252)
[3] = biological target: rVSV-Omicron spike (SARS-CoV-2 Omicron, UniProt P0DTC2 14-1252)

Binder | IC50 (ng/mL), neutralization of rVSV-G614 pseudovirions on Vero cells [1] | IC50 (ng/mL), neutralization of rVSV-Delta pseudovirions on Vero cells [2] | IC50 (ng/mL), neutralization of rVSV-Omicron pseudovirions on Vero cells [3]
B1 | 8 ng/mL | 12 ng/mL | 3 ng/mL
B2 | 15 ng/mL | 324 ng/mL | 88 ng/mL
